Data on one substance can be found in patent US20050008653.

Data set [1] has as its target p53 core domain wild-type (UniProt P04637). The data set can be described thus: FP. The conditions noted are these: wild-type value quoted for comparison; CDB3 did not affect wild-type DNA binding.
Data set [2] deals with p53 core domain I195T I195T (UniProt P04637). The experiment in a line: FP.

In the case of Gadd45 30-mer DNA, the Kd in data set [1] is 0.8 µM; in data set [2] (after 1 h at 10 C with 100 uM CDB3 peptide) it was 1 µM; in data set [2] (no peptide, 10 C incubation, 1:1 binding fit), 6 µM.

One may read the Kd as a measure of binding affinity in units of concentration. A high value points to a looser complex.
